According to patent US12459987B2, “Monoclonal antibodies for prevention and treatment of herpes simplex viral infections” (priority 2019, dated 2025):
Entries after “also recorded” stand apart in the source; their conditions may differ.

Experiments:
HSV-2 = assay: Passive transfer in vivo protection assay, lethal HSV-2 challenge; parameters: species or system mice
Description: Mice were prime-boost immunized with ΔgD-2 and the spleens, draining lymph nodes or bone marrow were isolated. Germinal center (GC) B cells were then cultured on NB-21.2D9 cells (Nojima cultures). After culture, supernatants were screened for the presence of HSV-lysate binding IgG by ELISA. The V(D)J rearrangements amplified from selected GC B-cell cultures for the B-cell antigen receptor (BCR) repertoire analysis in GC B cell clones among individual mice were sequenced. Then, reconstituted antibodies from selected single GC B cell cultures and from single, bone marrow plasmacytes were evaluated for ability to activate the mFcγRIV in vitro and to protect mice in a passive transfer model.
Both IgG1 and IgG2c forms of 22D10, 33B8, and BMPC-23 antibodies (≥4 mg each) were assessed for reproducibility of in vivo protection assay, and any dependency on Ig isotype for protection. […] To test roles of Ig isotypes on ability to provide protection, IgG1 and IgG2c isotypes of these three antibodies were generated and assessed for ability to activate mFcγRIV signaling (as a measurement for ADCC), and for in vivo protection assay.

[1] = target: glycoprotein B of HSV-1 (gB-1) (Human herpesvirus 1, UniProt P10211); assay: Luminex multiplex assay, binding to gB-1; details: Table 3 summary
Description: FIGS. 9A and 9B are graphs of median fluorescence intensity (MFI) versus IgG concentration (ng/ml), showing the binding of various recombinant antibodies to gB-1 as measured by Luminex multiplex assay.
BMPC-23 binds HSV-1 gB (gB-1). The gB-1 binding of the antibodies was determined by Luminex multiplex assay. Mixtures of antigen (gB-1)-conjugated microspheres (1,000 counts each) were added to each well of 96-well filter plates (Millipore). After washing with PBS containing 1% BSA, 0.05% Tween 20 and 0.05% NaN3, serially diluted recombinant antibodies (5E7, 19G7, 18G4, 22E10, 3A2, 17G3, 22D10, 32H6, 33B8, 25H7, BMPC-23, and S5V2-29) were added to the plates and incubated for 2 hours at room temperature, with mild agitation of the plates. Samples were diluted in PBS containing 1% cow milk, 1% BSA, 0.05% Tween 20 and 0.05% NaN3. After washing, PE goat anti-mouse IgG was added to the plates and incubated for 1 hour at room temperature with mild agitation. After washing, microspheres were resuspended in PBS containing 1% BSA, 0.05% Tween 20 and 0.05% NaN3 and fluorescent signals from each microsphere were measured in a Bio-Plex® 3D machine.
Finding gB-1 specific HSV antibodies. After Nojima culture (single B-cell culture), HSV-specific antibodies were cloned from germinal center B cells and tested for binding to HSV-1 gB-1 by Luminex multiplex assay as described above. FIGS. 9A and 9B show the gB-1 binding results for 10 antibodies in comparison with BMPC-23. With the exception of BMPC-23, the antibodies in Table 3 were derived from germinal center B cells (lymph nodes) taken 15-17 days after primary vaccination with ΔgD-2. BMPC-23 was derived from bone marrow plasmacytes taken 2 weeks post-boost with ΔgD-2. Nucleotide sequences and amino acid sequences for the heavy-chains and light chains are shown in Table 4, as are the amino acid sequences for the light chain and heavy chain CDR1, CDR2, and CDR3.

[2] = tested on: HSV-2 G infected cell lysates; assay: ELISA binding of recombinant antibodies to HSV-2 G infected cell lysates; parameters: species or system HSV-2 G strain
Description: Binding of recombinant antibodies to HSV-2 G lysates was tested by ELISA. Both heavy and light chain V(D)J rearrangements were amplified from selected single B-cell culture wells (22D10, 32H6, 33B8, and 35H7) by standard RT-PCR. These cloned V(D)J rearrangements were introduced into expression vectors. Recombinant antibodies were obtained by co-transfection of these expression vectors into Expi293F cells. ≥4 mg of purified IgGs was obtained (not shown). […]
Briefly, mice were vaccinated with ΔgD-2 and then 16 days after vaccination, the draining, inguinal lymph nodes were harvested. GC B cells were isolated from these tissues and were cultured in Nojima cultures. Although overall cloning efficiency of GC B cells from these (shipped) tissues was lower than those from freshly isolated tissues (6% vs. 20%), 50 GC clones were obtained that were specific to HSV-2 G strain (HSV-2 G or HSV2-G) lysate. GC B cells from inguinal lymph nodes of mice vaccinated with ΔgD-2 were sorted directly into 96-well plates (1 cell/well). These GC B cells were then cultured in the presence of NB-21.2D9 feeder cells. After culture, presence of IgG was first determined by ELISA, and then the reactivity of culture supernatant IgG against HSV-2 G lysates (HSV-2 G) and uninfected Vero lysates were tested by ELISA.
Based on the obtained V(D)J sequences from each B-cell culture, paired heavy and light chains were re-expressed (as recombinant mouse IgG1 and IgG2c antibodies) in Expi293F cells (Kuraoka et al. Immunity 2016; DiLillo et al. Nature Medicine 2013). […] As expected, all recombinant antibodies reacted specifically with HSV-2 G lysates (FIG. 3). […] Binding of recombinant antibodies to HSV-2 G lysates was tested by ELISA. Both heavy and light chain V(D)J rearrangements were amplified from selected single B-cell culture wells (22D10, 32H6, 33B8, and 35H7) by standard RT-PCR. These cloned V(D)J rearrangements were introduced into expression vectors. Recombinant antibodies were obtained by co-transfection of these expression vectors into Expi293F cells. ≥4 mg of purified IgGs was obtained (not shown). […] These recombinant antibodies (≥4 mg each) were tested for identification of reacting antigen(s), in an in vitro FcγRIV activation assay (Promega FcγRIV ADCC Reporter Bioassay)(FIG. 4), and in vivo protection assay. […]

[3] = target: human herpesvirus glycoprotein B (gB) (Human herpesvirus 2, UniProt P08666); assay: Immunoprecipitation-Mass Spectrometry (IP-MS) target identification; assay type: binding
Description: FIG. 7A-7B. Immunoprecipitation-Mass Spectrometry (IP-MS) was performed to identify the binding targets of 22D10, 33B8, and BMPC-23 antibodies.
IP-MS was performed to identify the targets of 22D10, 33B8, and BMPC-23 antibodies.

uninfected Vero lysate = assay: ELISA binding to control uninfected Vero lysate
Description: Binding of recombinant antibodies to HSV-2 G lysates was tested by ELISA. Both heavy and light chain V(D)J rearrangements were amplified from selected single B-cell culture wells (22D10, 32H6, 33B8, and 35H7) by standard RT-PCR. These cloned V(D)J rearrangements were introduced into expression vectors. Recombinant antibodies were obtained by co-transfection of these expression vectors into Expi293F cells. ≥4 mg of purified IgGs was obtained (not shown).
Based on the obtained V(D)J sequences from each B-cell culture, paired heavy and light chains were re-expressed (as recombinant mouse IgG1 and IgG2c antibodies) in Expi293F cells (Kuraoka et al. Immunity 2016; DiLillo et al. Nature Medicine 2013). […] As expected, all recombinant antibodies reacted specifically with HSV-2 G lysates (FIG. 3). […] Binding of recombinant antibodies to HSV-2 G lysates was tested by ELISA. Both heavy and light chain V(D)J rearrangements were amplified from selected single B-cell culture wells (22D10, 32H6, 33B8, and 35H7) by standard RT-PCR. These cloned V(D)J rearrangements were introduced into expression vectors. Recombinant antibodies were obtained by co-transfection of these expression vectors into Expi293F cells. ≥4 mg of purified IgGs was obtained (not shown). […]

B1: 33B8: monoclonal antibody from germinal center B cell; IgH SEQ ID NO: 28, IgL SEQ ID NO: 30 (antibody, V domains shown)
VH: EVKLVESGGGLVQPGGSLSLSCATSGFTFTDYYMNWVRQPPGKALEWLGFIRNKANGYTTEYSASVKGRFTISRDNSQSILYLQMNSLRAEDSATYYCACGNYVGYAMDYWGQGTSVTVSSA
VL: DIVMSQSPSSLAVSAGEKVTMSCKSSQSLLNSRTRKNYLAWYQQKPGQSPKLLIYWASTRESGVPDRFTGSGSGTDFTLTISSVQAEDLAVYYCKQSYNLYTFGGGTKLEIKR
modifications: 33B8 heavy chain; 33B8 light chain
- Mice protected from lethal challenge (HSV-2; IgG2c version, overall results from 2 independent experiments, passive transfer): 4/10
- in vivo protection (HSV-2; Table 3 summary): Yes
- Protection against lethal HSV-2 challenge (HSV-2; as IgG2c, passive transfer, overall survival, epithelial and neurological assays): significant protection; also recorded: provides protection
- Target antigens [1]: (not gB)
- Binding of recombinant antibodies to HSV-2 G lysates ([2]; ELISA, recombinant antibodies expressed in Expi293F cells): Retention of HSV-2 G lysate-binding
- Binding to HSV-lysate ([2]; Table 3 summary): Yes
- Binding target identified by IP-MS [3]: human herpesvirus glycoprotein B (gB)
- Binding to control, uninfected Vero lysate (uninfected Vero lysate): did not bind
